Source: paper PMC11555707, “Histone deacetylase 7 activates 6-phosphogluconate dehydrogenase via an enzyme-independent mechanism that involves the N-terminal protein-protein interaction domain” (Biochemical Journal, 2024)

Target: the molecule itself
Experiment: cross-linking; lysates of transfected HEK293 cells (50 mM HEPES, 150 mM NaCl, 0.5% Triton X-100) incubated with 2 mM disuccinimidyl suberate (DSS) for 30 min at room temperature, quenched with 50 mM Tris-HCl; immunoblot with anti-Flag; 6PGD alone or with HDAC7, N-HDAC7, C-HDAC7 or SOX7

B1: 6-phosphogluconate dehydrogenase (6PGD), Flag-tagged (enzyme, mouse, UniProt Q9DCD0 1-483, looked up)
chain: MAQADIALIGLAVMGQNLILNMNDHGFVVCAFNRTVSKVDDFLANEAKGTKVVGAQSLKDMVSKLKKPRRVILLVKAGQAVDDFIEKLVPLLDTGDIIIDGGNSEYRDTTRRCRDLKAKGILFVGSGVSGGEEGARYGPSLMPGGNKEAWPHIKAIFQAIAAKVGTGEPCCDWVGDEGAGHFVKMVHNGIEYGDMQLICEAYHLMKDVLGMRHEEMAQAFEEWNKTELDSFLIEITANILKYRDTDGKELLPKIRDSAGQKGTGKWTAISALEYGMPVTLIGEAVFARCLSSLKEERVQASQKLKGPKVVQLEGSKKSFLEDIRKALYASKIISYAQGFMLLRQAATEFGWTLNYGGIALMWRGGCIIRSVFLGKIKDAFERNPELQNLLLDDFFKSAVDNCQDSWRRVISTGVQAGIPMPCFTTALSFYDGYRHEMLPANLIQAQRDYFGAHTYELLTKPGEFIHTNWTGHGGSVSSSSYNA
notes: mouse 6-phosphogluconate dehydrogenase (6PGD); A shorter ~40 kDa form (6PGD-s), also detected by anti-Flag, arises in the same cells; also called full-length 6PGD; source: HEK293, transfected (pCMV-based construct), in lysate
stoichiometry N: 2
